83 variants from the RNAGym collection of RNA variant scans (doi:10.1093/molbev/msab373) can be followed below.

The labels stand for the following.
B1: Azoarcus group I ribozyme (parent)
chain: GUGCCUUGCGCCGGGAAACCACGCAAGGGAUGGUGUCAAAUUCGGCGAAACCUAAGCGCCCGCCCGGGCGUAUGGCAACGCCGAGCCAAGCUUCGGCGCCUGCGCCGAUGAAGGUGUAGAGACUAGACGGCACCCACCUAAGGCAAACGCUAUGGUGAAGGCAUAGUCCAGGGAGUGGCGAAAGUCACACAAACCGG

The data set covers variants of B1. The data set is described as follows: reverse-splicing fitness (ratio to wild type); higher = more active; in vitro selection; Mg2+ level not given. In a few lines:
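An in vitro group I ribozyme library with randomized positions was T7-transcribed and gel-purified. In triplicate, 10 pmol RNA in EPPS pH 7.5 was reacted with 50 pmoles of a 30-nt RNA substrate for 1 h at 37 °C across several added MgCl2 levels (1–48 mM), then stopped with EDTA. Products were reverse transcribed from a substrate-complementary primer, PCR-amplified and sequenced (HiSeq 4000). Fitness is a variant's read proportion after selection over that before, normalised to wild type.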
As for C82U A111U A120G A145U C150U C169G U176G, the reverse-splicing fitness came to 0.00463.

For the variant C82U A111U A120G A145U C150U C169G U176A, the reverse-splicing fitness stood at 0.0119.

With C82U A111U A120G A145U C150U C169G U176C, the reverse-splicing fitness was determined as 0.0134.

Consider C82U A111U A120U A145G C169U, for which the reverse-splicing fitness was 0.00389.

As to C82U A111U A120U A145G C169G, the reverse-splicing fitness came to 0.00363.

For the variant C82U A111U A120U A145G C169A, the reverse-splicing fitness is 0.0029.

In the case of C82U A111U A120G A145U C150U C169U U176G, the reverse-splicing fitness was 0.00432.

In the case of C82U A111U A120G A145U C150U C169U U176C, the reverse-splicing fitness was found to be 0.0139.

C82U A111U A120G A145U C150U C169U U176A: the reverse-splicing fitness worked out at 0.0203.

Take C82U A111U A120G A145G C150U C169G U176C: the reverse-splicing fitness was determined as 0.016.

For the variant C82U A111U A120G A145G C150U C169G U176A, the reverse-splicing fitness is 0.0129.

With C82U A111U A120G A145G C150U C169G U176G, the reverse-splicing fitness came to 0.00411.

With C82U A111U A120G C150A C169U U176A, the reverse-splicing fitness is 0.0209.

For C82U A111U A120G C150A C169U U176C, the reverse-splicing fitness worked out at 0.0171.

In the case of C82U A111U A120G C150A C169U U176G, the reverse-splicing fitness was found to be 0.00726.

Consider C82U A111U A120U A145G C150U C169G U176A, for which the reverse-splicing fitness is 0.00606.

As to C82U A111U A120U A145G C150U C169G U176G, the reverse-splicing fitness came to 0.00243.

With C82U A111U A120U A145G C150U C169G U176C, the reverse-splicing fitness was 0.00383.

With C82U A111U A120G A145U C150A C169A U176C, the reverse-splicing fitness worked out at 0.0092.

On to C82U A111U A120G A145U C150A C169A U176G, for which the reverse-splicing fitness was 0.00508.

For C82U A111U A120G A145U C150A C169A U176A, the reverse-splicing fitness was found to be 0.0137.

Take C82U A111U A120G C150G C169G: the reverse-splicing fitness was 0.00757.

For C82U A111U A120G C150G C169U, the reverse-splicing fitness is 0.00755.

Regarding C82U A111U A120G C150G C169A, the reverse-splicing fitness turned out to be 0.00782.

As to C82U A111U A120U A145G C150A C169U U176A, the reverse-splicing fitness turned out to be 0.00439.

Regarding C82U A111U A120U A145G C150A C169U U176G, the reverse-splicing fitness was determined as 0.00228.

In the case of C82U A111U A120U A145G C150A C169U U176C, the reverse-splicing fitness was found to be 0.00345.

Take C82U A111U A120G A145U C169G U176A: the reverse-splicing fitness worked out at 0.0111.

For C82U A111U A120G A145U C169G U176C, the reverse-splicing fitness was found to be 0.0121.

As to C82U A111U A120G A145U C169G U176G, the reverse-splicing fitness worked out at 0.00402.

Take C82U A111U A120G A145U C150A U176G: the reverse-splicing fitness turned out to be 0.00425.

Consider C82U A111U A120G A145U C150A U176A, for which the reverse-splicing fitness was determined as 0.0096.

Take C82U A111U A120G A145U C150A U176C: the reverse-splicing fitness came to 0.0112.

On to C82U A111U A120G C150A C169A U176A, for which the reverse-splicing fitness was found to be 0.0189.

For the variant C82U A111U A120G C150A C169A U176C, the reverse-splicing fitness was found to be 0.0173.

For the variant C82U A111U A120G C150A C169A U176G, the reverse-splicing fitness turned out to be 0.00561.

For the variant C82U A111U A120G C150A, the reverse-splicing fitness was determined as 0.00947.

Take C82U A111U A120G C150G: the reverse-splicing fitness is 0.00696.

Consider C82U A111U A120G C150U, for which the reverse-splicing fitness came to 0.0114.

Regarding C82U A111U A120G A145U C150U C169A, the reverse-splicing fitness turned out to be 0.00897.

On to C82U A111U A120G A145U C150U C169U, for which the reverse-splicing fitness stood at 0.00788.

Take C82U A111U A120G A145U C150U C169G: the reverse-splicing fitness turned out to be 0.00885.

As to C82U A111U A120G C150G C169U U176C, the reverse-splicing fitness stood at 0.0119.

For C82U A111U A120G C150G C169U U176G, the reverse-splicing fitness stood at 0.00556.

In the case of C82U A111U A120G C150G C169U U176A, the reverse-splicing fitness came to 0.0122.

For C82U A111U A120U A145C C150U, the reverse-splicing fitness amounted to 0.00815.

For C82U A111U A120U A145C C150A, the reverse-splicing fitness came to 0.00466.

In the case of C82U A111U A120U A145C C150G, the reverse-splicing fitness came out at 0.00588.

Turning to C82U A111U A120U A145C C169G U176C, the reverse-splicing fitness was 0.00221.

Turning to C82U A111U A120U A145C C169G U176G, the reverse-splicing fitness stood at 0.0016.

Regarding C82U A111U A120U A145C C169G U176A, the reverse-splicing fitness turned out to be 0.00238.

C82U A111U A120G A145G C150G C169A: the reverse-splicing fitness worked out at 0.00888.

Take C82U A111U A120G A145G C150G C169G: the reverse-splicing fitness was found to be 0.00719.

Regarding C82U A111U A120G A145G C150G C169U, the reverse-splicing fitness turned out to be 0.0089.

As to C82U A111U A120G C150U C169A U176G, the reverse-splicing fitness worked out at 0.005.

As for C82U A111U A120G C150U C169A U176C, the reverse-splicing fitness is 0.0129.

As for C82U A111U A120G C150U C169A U176A, the reverse-splicing fitness was 0.0156.

For the variant C82U A111U A120G A145G C150A C169U, the reverse-splicing fitness stood at 0.00848.

As to C82U A111U A120G A145G C150A C169A, the reverse-splicing fitness stood at 0.0105.

For the variant C82U A111U A120G A145G C150A C169G, the reverse-splicing fitness is 0.00828.

Turning to C82U A111U A120U A145C C150G C169A U176C, the reverse-splicing fitness amounted to 0.00247.

As for C82U A111U A120U A145C C150G C169A U176G, the reverse-splicing fitness came to 0.00281.

Take C82U A111U A120U A145C C150G C169A U176A: the reverse-splicing fitness turned out to be 0.00264.

Turning to C82U A111U A120G A145G U176A, the reverse-splicing fitness was found to be 0.0127.

Take C82U A111U A120G A145G U176C: the reverse-splicing fitness worked out at 0.0197.

Consider C82U A111U A120G A145G U176G, for which the reverse-splicing fitness was determined as 0.00453.

Turning to C82U A111U A120G C169U U176A, the reverse-splicing fitness came out at 0.0215.

Consider C82U A111U A120G C169U U176G, for which the reverse-splicing fitness was 0.00594.

C82U A111U A120G C169U U176C: the reverse-splicing fitness was found to be 0.0161.

As to C82U A111U A120G A145G C169U, the reverse-splicing fitness was 0.00849.

With C82U A111U A120G A145G C169G, the reverse-splicing fitness is 0.00995.

Turning to C82U A111U A120G A145G C169A, the reverse-splicing fitness amounted to 0.01.

On to C82U A111U A120U A145G C150A U176A, for which the reverse-splicing fitness amounted to 0.00691.

As for C82U A111U A120U A145G C150A U176G, the reverse-splicing fitness turned out to be 0.00271.

As to C82U A111U A120U A145G C150A U176C, the reverse-splicing fitness was found to be 0.00627.

Consider C82U A111U A120U A145C C150A C169U U176G, for which the reverse-splicing fitness amounted to 0.00213.

On to C82U A111U A120U A145C C150A C169U U176C, for which the reverse-splicing fitness came to 0.00269.

Consider C82U A111U A120U A145C C150A C169U U176A, for which the reverse-splicing fitness is 0.0025.

Turning to C82U A111U A120U A145U C150A C169A U176A, the reverse-splicing fitness was 0.00233.

Take C82U A111U A120U A145U C150A C169A U176C: the reverse-splicing fitness was 0.00283.

On to C82U A111U A120U A145C C150U U176A, for which the reverse-splicing fitness worked out at 0.00399.

As for C82U A111U A120U A145C C150U U176C, the reverse-splicing fitness was 0.00469.

For the variant C82U A111U A120U A145C C150U U176G, the reverse-splicing fitness is 0.0026.
